Here are results for three molecules from patent publication US20240209106A1 (BEIGENE SWITZERLAND, published 2024).

Assay [1] addresses human CD137 ECD-mIgG2a (human). The assay can be described thus: SPR, human CD137 ECD-mIgG2a. (In general: Surface plasmon resonance follows binding to a sensor surface in real time, without labels.)
Assay [2] concerns the target T1, full-length human CD137 (huCD137) (human, UniProt Q07011 24-255).
T1 construct: On transduced Hut78 cells (Hut78/huCD137), transiently on HEK293 cells, or natively on PBMC/T cells; also called TNFRSF9; 4-1BB
The assay can be described thus: flow cytometry on Hut78/huCD137 cells. (In general: A flow cytometer gives signals particle by particle.)

In assay [3] the target is human CD137 ECD-mIgG2a (human). Description: SPR, antibody captured on anti-human Fc surface; analyte taken as human CD137 ECD-mIgG2a.
Sequence of human CD137 ECD-mIgG2a (human) (chain, as listed by the source limits assumed): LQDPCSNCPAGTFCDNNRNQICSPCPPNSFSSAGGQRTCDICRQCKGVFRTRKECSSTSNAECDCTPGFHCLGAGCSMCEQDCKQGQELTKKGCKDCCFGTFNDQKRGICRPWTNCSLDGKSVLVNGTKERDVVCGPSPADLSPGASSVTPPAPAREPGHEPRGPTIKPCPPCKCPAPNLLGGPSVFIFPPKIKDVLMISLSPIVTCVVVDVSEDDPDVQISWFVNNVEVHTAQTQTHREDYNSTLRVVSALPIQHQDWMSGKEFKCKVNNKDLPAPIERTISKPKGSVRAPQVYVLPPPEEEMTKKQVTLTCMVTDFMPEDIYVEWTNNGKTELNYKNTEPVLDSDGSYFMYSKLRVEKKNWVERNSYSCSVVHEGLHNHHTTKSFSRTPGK
The target in assay [4] is human CD137 ECD-mIgG2a (human). The assay can be described thus: SPR, multispecific antibody captured on anti-human IgG Fc chip, human CD137 ECD-mIgG2a flowed over; Table 15, comparison run with the affinity-matured variants.
In assay [5] the target is T2, human CD137 ECD (AA 24-183) (human, UniProt Q07011 24-183).
T2 construct: also called huCD137
The assay can be described thus: method and huCD137 construct not stated.

In the next assay the target is T3, recombinant CEA protein (human, UniProt P06731 35-685, limits assumed).
T3 construct: also called recombinant soluble CEA; in-house made recombinant CEA proteins
T3 sequence (looked up): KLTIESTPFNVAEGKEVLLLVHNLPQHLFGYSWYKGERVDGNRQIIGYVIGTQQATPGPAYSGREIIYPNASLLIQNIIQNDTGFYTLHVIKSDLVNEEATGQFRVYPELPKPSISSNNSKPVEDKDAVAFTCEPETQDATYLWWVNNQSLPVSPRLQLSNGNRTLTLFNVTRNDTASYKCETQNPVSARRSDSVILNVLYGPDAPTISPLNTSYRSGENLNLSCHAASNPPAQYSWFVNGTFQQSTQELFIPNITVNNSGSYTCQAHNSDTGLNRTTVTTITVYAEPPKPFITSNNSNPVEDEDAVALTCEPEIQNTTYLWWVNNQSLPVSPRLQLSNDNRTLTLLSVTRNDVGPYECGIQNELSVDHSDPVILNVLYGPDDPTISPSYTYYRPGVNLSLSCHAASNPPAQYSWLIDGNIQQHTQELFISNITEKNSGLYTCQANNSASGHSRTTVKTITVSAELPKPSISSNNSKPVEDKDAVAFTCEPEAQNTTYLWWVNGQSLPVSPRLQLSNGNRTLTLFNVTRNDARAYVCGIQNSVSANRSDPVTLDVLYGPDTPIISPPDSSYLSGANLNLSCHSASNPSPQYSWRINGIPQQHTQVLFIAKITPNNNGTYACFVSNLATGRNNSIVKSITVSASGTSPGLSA
The assay can be described thus: method and CEA construct not stated (TAA KD).

A further assay concerns the target T4, human CEA on cells (human, UniProt P06731 35-685).
T4 construct: whole, on cells; also called CT26/CEA; MKN45
T4 sequence (looked up): T3 sequence (looked up)
Description: flow cytometry on MKN45 cells [panel A].

For assay [6], the target named is T5, GPC3 (protein used for the TAA KD of Table 23) (UniProt P51654 25-559, limits assumed).
T5 construct: also called Glypican 3
T5 sequence (P51654 25-559 limits assumed): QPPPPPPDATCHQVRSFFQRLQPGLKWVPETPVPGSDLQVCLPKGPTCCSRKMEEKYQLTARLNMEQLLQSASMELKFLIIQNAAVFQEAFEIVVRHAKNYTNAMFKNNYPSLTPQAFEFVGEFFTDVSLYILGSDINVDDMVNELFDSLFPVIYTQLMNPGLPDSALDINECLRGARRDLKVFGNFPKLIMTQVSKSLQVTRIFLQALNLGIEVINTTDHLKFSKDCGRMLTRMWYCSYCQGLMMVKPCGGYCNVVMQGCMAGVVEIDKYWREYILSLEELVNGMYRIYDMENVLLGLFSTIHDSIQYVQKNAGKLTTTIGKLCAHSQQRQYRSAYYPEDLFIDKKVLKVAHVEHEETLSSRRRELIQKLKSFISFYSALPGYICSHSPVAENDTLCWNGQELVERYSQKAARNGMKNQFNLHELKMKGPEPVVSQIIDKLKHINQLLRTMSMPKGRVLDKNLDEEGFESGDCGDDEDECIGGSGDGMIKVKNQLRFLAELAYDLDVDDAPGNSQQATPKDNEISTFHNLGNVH
Description: method and GPC3 construct not stated (TAA KD).

Assay [7] addresses T6, Glypican 3 (GPC3) on cells (human, UniProt P51654 25-554).
T6 construct: whole, on cells; also called HepG2; Huh7
Description: flow cytometry on HepG2 cells [panel C].

The term Kd denotes the free concentration of one partner at which half of the binding sites on the other are occupied at equilibrium, for simple one-to-one binding. For orientation: EC50 means the concentration that produces a half-maximal response. Lower therefore signals a more potent agent. The koff is a measure of how fast the partners let go of each other. Higher therefore signals fast dissociation. The kon is a measure of how fast the partners come together. A higher kon goes with fast association. What is called EC50 (read off the curve) is the concentration at which the effect is half-maximal.

Substitutions are numbered along the chain they refer to.

T6 sequence (P51654 25-554 limits assumed): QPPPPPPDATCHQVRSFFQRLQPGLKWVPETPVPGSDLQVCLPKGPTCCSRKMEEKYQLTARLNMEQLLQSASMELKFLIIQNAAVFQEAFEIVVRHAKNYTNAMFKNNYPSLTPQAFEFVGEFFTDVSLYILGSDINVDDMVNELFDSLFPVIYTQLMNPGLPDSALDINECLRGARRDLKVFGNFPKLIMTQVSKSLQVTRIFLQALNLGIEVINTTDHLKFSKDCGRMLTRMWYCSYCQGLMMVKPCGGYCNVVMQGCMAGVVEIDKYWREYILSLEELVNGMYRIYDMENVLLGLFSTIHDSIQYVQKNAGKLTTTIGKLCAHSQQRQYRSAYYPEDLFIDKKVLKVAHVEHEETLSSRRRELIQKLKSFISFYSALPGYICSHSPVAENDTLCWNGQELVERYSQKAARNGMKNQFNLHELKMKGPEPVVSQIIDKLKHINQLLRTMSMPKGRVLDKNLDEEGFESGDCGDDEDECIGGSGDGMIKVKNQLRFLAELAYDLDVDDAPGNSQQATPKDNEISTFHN
T1 sequence (Q07011 24-255 limits assumed): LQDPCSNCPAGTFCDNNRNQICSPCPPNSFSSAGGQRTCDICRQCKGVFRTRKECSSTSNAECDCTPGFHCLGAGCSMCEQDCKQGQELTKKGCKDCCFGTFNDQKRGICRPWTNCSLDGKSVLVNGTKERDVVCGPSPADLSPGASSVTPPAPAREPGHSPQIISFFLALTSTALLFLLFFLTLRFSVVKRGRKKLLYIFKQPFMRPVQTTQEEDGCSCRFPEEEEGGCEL

B1: A-CD137×CEA-M3 (bispecific antibody, human IgG1, kappa)
heavy: QVQLVQSGAEVKKPGASVKVSCKASGYIFTSYYLHWVRQAPGQGLEWIGYINPQTGKTSYAQKFQGRVTMTRDTSTSTVYMELSSLRSEDTAVYYCAREYGNYNYPLDYWGQGTLVTVSSASTKGPSVFPLAPSSKSTSGGTAALGCLVKDYFPEPVTVSWNSGALTSGVHTFPAVLQSSGLYSLSSVVTVPSSSLGTQTYICNVNHKPSNTKVDKKVEPKSCDKTHTCPPCPAPPAAGPSVFLFPPKPKDTLMISRTPEVTCVVVDVSHEDPEVKFNWYVDGVEVHNAKTKPREEQYNSTYRVVSVLTVLHQDWLNGKEYKCKVSNKALAAPIEKTISKAKGQPREPQVYTLPPSREEMTKNQVSLTCLVKGFYPSDIAVEWESNGQPENNYKTTPPVLDSDGSFFLYSKLTVDKSRWQQGNVFSCSVMHEALHNHYTQKSLSLSPGKGGGGSEVQLLESGGGLVQPGGSLRLSCAASGFTLSAEDVGWVRQAPGKGLEWVSAILDFGGSTYYAESVKGRFTISRDNAKNTLYLQMSSLRAEDTAVYYCARVVYHAGGGVTFDYWGQGTLVTVSS
light: DIQMTQSPSSLSASVGDRVTITCRASENQYGYLAWYQQKPGKVPKLLIYNYKNLVEGVPSRFSGSGSGTDFTLTISSLQPEDVATYYCQHHLGTPYTFGQGTKVEIKRTVAAPSVFIFPPSDEQLKSGTASVVCLLNNFYPREAKVQWKVDNALQSGNSQESVTEQDSKDSTYSLSSTLTLSKADYEKHKVYACEVTHQGLSSPVTKSFNRGEC
notes: The chain is therefore built from its pieces
B1: the figures for the Kd with human CD137 ECD-mIgG2a [1], with human CD137 ECD-mIgG2a [3] and with human CD137 ECD-mIgG2a [4] were 255 nM, 255 nM and 289 nM, respectively. The molecule also displayed an EC50 in assay [2] of 0.52 µg/mL. In the assay with human CD137 ECD-mIgG2a [3], this molecule gave a koff of 0.00267 s⁻¹. The molecule also showed an on-rate constant (kon) with human CD137 ECD-mIgG2a [3] of 10500 M⁻¹ s⁻¹.

B2: BE-146 (CEA × CD137) (bispecific antibody, human IgG1, kappa)
heavy: B1 heavy with L483V, F508K, V553I, Y565T, W566R, L571Q
light: B1 light
notes: Module ratio 2:2
On to B2, for which the Kd in assay [5] was 167 nM; in the assay with recombinant CEA protein, 6.5 nM. In addition, the “EC50 (read off the curve)” value with human CEA on cells was ~0.5 µg/mL.

B3: BE-830 (GPC3 × CD137) (bispecific antibody, human IgG1, kappa)
heavy: not shown
light: DVVMTQSPLSLPVTPGEPASISCRSSQSLVHSNRNTYLHWYLQKPGQSPQLLIYKVSNRFSGVPDRFSGSGSGTDFTLKISRVEAEDVGVYYCSQNTHVPPTFGQGTKLEIKRTVAAPSVFIFPPSDEQLKSGTASVVCLLNNFYPREAKVQWKVDNALQSGNSQESVTEQDSKDSTYSLSSTLTLSKADYEKHKVYACEVTHQGLSSPVTKSFNRGEC
notes: also called CD137×GPC3; GPC3×CD137 multispecific antibody BE-830
On to B3, for which the Kd in assay [5] is 182 nM; in assay [6], 1.47 nM. Moreover, the “EC50 (read off the curve)” value in assay [7] is ~0.7 µg/mL.
